Results on 2 molecules are retold here after PMC6404581, “Staphylococcus aureus toxin LukSF dissociates from its membrane receptor target to enable renewed ligand sequestration” (The FASEB Journal, 2018).

Experiment [1] concerns the target sortase-tagged FITC-labeled human C5a receptor, on HEK cells (human) (UniProt P21730). As to the kind of experiment: FRET or BRET; sensitized emission FRET, fixed FITC-hC5aR cells with one Cy3-labeled toxin component alone (Cy3 mS* or only Cy3 mF*), 30 min at 4°C then 10 min at 37°C, washed, fixed, PBS. (BRET reads energy transfer from a luciferase to a nearby fluorophore.)

Experiment [2] has the same target. As to the kind of experiment: FRET or BRET; sensitized emission FRET, live sortase-tagged FITC-hC5aR cells (donor) with Cy3 mS* (acceptor), 1 h at +4°C, washed, before addition of mF.
The target in experiment [3] is human C5a receptor, endogenous on human polymorphonuclear cells (human (endogenous in PMNs)) (UniProt P21730).
Experiment [4] addresses T1, wild-type Staphylococcus aureus leukocidin S (Staphylococcus aureus, UniProt O80066 29-312).
T1 construct: also called S(wt); LukS; source: E. coli Rosetta-gami 2 (DE3) pLysS, purified (nickel HisTrap, Superdex 75)
T1 sequence: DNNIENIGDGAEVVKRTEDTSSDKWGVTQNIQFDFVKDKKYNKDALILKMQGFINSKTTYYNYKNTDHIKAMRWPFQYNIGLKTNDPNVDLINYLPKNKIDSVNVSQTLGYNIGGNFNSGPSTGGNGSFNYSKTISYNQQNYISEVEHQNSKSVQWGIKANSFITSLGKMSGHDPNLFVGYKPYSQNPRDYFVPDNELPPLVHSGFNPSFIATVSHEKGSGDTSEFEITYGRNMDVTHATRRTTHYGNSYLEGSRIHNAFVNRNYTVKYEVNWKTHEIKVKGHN
Description: flow cytometry on cells. To be noted: both partners purified.

sortase-tagged FITC-labeled human C5a receptor, on HEK cells (human), sequence (P21730 whole entry): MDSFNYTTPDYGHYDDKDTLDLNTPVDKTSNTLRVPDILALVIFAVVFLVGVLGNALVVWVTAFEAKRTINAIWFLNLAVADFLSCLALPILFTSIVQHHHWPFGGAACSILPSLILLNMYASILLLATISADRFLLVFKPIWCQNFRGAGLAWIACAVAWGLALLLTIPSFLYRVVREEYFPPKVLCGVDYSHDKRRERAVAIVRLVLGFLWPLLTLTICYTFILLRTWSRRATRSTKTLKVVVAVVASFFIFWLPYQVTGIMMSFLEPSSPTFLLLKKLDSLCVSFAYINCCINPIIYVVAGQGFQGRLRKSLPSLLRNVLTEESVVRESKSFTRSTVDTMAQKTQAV
human C5a receptor, endogenous on human polymorphonuclear cells (human (endogenous in PMNs)), sequence (P21730 whole entry): as above

“maleimide-labeled LukS-K281C-Y113H (natural protein)”: the FRET efficiency came to 60% in experiment [1] and 75% in experiment [2]. This molecule also displayed a toxin concentration at which PMN permeabilization (DAPI uptake, flow cytometry, 30 min) reaches 100%; modified toxins in place of the wild-type ones in experiment [3] of 3 nM.

B1: G130D leukocidin component F (natural protein, Staphylococcus aureus)
chain: MGSQHITPVSEKKVDDKITLYKTTATSDSDKLKISQILTFNFIKDKSYDKDTLILKAAGNIYSGYTKPNPKDTISSQFYWGSKYNISINSDSNDSVNVVDYAPKNQNEEFQVQQTVGYSYGGDINISNGLSGDGNGSKSFSETINYKQESYRTSLDKRTNFKKIGWDVEAHKIMNNGWGPYGRDSYHSTYGNEMFLGSRQSNLNAGQNFLEYHKMPVLSRGNFNPEFIGVLSRKQNAAKKSKITVTYQREMDRYTNFWNQLHWIGNNYKDENRATHTSIYEVDWENHTVKLIDTQSKEKNPMSAAA
notes: cloning residues before LukF; LukF-PV, S. aureus; they already carry the D (LSGDGNG); residues from the NotI site between LukF and the C-terminal His6; also called F(G130D); LukF mutant G130D LukF; source: E. coli Rosetta-gami 2 (DE3) pLysS, purified (nickel HisTrap, Superdex 75)
As for B1, in experiment [4], the binding result is “binds”.
